Test results published in US20210063414A1, “METHODS FOR PREVENTING AND/OR TREATING BONE LOSS CONDITIONS BY MODULATING IRISIN” (Dana-Farber Cancer Institute, Inc., priority 2018, published 2021).

Experiments:
Assay in all cases: Crosslinking/co-immunoprecipitation/mass spectrometry (TMT quantitative proteomics) to identify irisin receptors
Format in all cases: binding
[1] = target: T1, MLO-Y4 cell surface proteins (Mus musculus, UniProt P59999); conditions: co-precipitated protein Atpc4 (ARPC4_MOUSE)
T1 construct: endogenous in cells; host or cells: MLO-Y4
Experimental: (§1) MLO-Y4 cells were seeded on 30×150 mm type-I collagen coated dishes as described in cell culture experiment. At 60% cell density, medium was switched to FreeStyle™ 293 Expression medium. After 4 hours incubation, the cells were chilled on ice for 10 minutes, followed by treatment of 10 nM his-tag irisin or his-tag adipsin for 20 minutes. The cells were then incubated with 1.5 mM DTSSP for 30 minutes on ice to do cross-linking, after washing with 15 ml cold PBS twice. The cross-linking was quenched by addition of a final concentration of 20 mM Tris-pH 7.5. The cells were then harvested and homogenized in 1 ml RIPA buffer containing proteaseinhibitor cocktailand phosphatase-inhibitor cocktail. Whole-cell lysates were homogenized by 10 times passages through a 22G needle fitted to a 3 ml syringe. Homogenized samples were rotated gently in cold room for 20 minutes followed by 15,000×g centrifugation for 10 minutes. After addition of a final concentration of 10 mM imidazole, supernatants were incubated with 100 μl Ni-NTA agarose for 1 hour. After centrifugation at 500×g for 1 minute, the supernatants were aspirated and 1 ml cold RIPA buffer containing 10 mM imidazole were added to the agarose. After 10 minutes rotation in cold room, the supernatants were aspirated and 1 ml cold RIPA buffer containing 30 mM imidazole were added to the agarose. After repeating the washing 3 times, 0.8 ml RIPA buffer containing 250 mM imidazole was added and the agarose was gently rotated in a cold room for 20 minutes. After centrifugation at 1000×g for 2 minutes, the supernatants were transferred to 1.5 ml tube and incubated with 100 μl 0.2% sodium deoxycholate and 100 μl 10% trichloroacetic acid in ice for 1 hour. After centrifugation at 12,000×g for 10 minutes at 4° C., the supernatants were removed and 1 ml cold acetone was added to the pellets followed by vortexing for 10 seconds. After one more washing with cold acetone, the pellets were dried at 37° C., and 39 μl PBS and 13 μl 4×NuPAGE LDS were added to the pellets with a final concentration of 5 mM DTT. Solubilized proteins were incubated at 65° C. for 20 minutes followed by incubation with a final concentration of 14 mM iodoacetamide for 45 minutes in the dark. 38 μl samples were loaded to 4-12% gradient SDS-PAGE for separation followed by Coomassie Blue staining. The gels were submitted to quantitative proteomics.
(§2) For in-gel digestions, gels were stained with Coomassie Blue and were excised into 8 equal segments for control and irisin lanes. Gel pieces were destained and dehydrated with 100% acetonitrile, vacuumed dried, and digested in 25 mM HEPES (pH 8.5) with 500 ng sequencing grade trypsin (Promega) and incubated for an overnight at 37° C. (Shevchenko et al. (1996) Anal. Chem. 68:850-858). Digests were treated with 1% formic acid and purified using C18 Stage-Tips as previously described (Rappsilber et al. (2007) Nat. Protoc. 2:1896-1906). Peptides were eluted with 70% acetonitrile and 1% formic acid, then dried using a speedvac. Isobaric labeling of digested peptides was accomplished using 6-plex tandem mass tag (TMT) reagents (Thermo Fisher Scientific, Rockford, Ill.). Reagents, 5.0 mg, were dissolved in 252 μl acetonitrile (ACN) and 5 μl of the solution was added to the digested peptides dissolved in 25 μl of 200 mM HEPES, pH 8.5. After 1 hour at room temperature, the reaction was quenched by adding 1 μl of 5% hydroxylamine. Labeled peptides were combined and acidified prior to C18 Stage-Tips desalting.
(§3) All LC-MS/MS experiments were performed on an Orbitrap Fusion™ Lumos mass spectrometer (Thermo Fisher Scientific, San Jose, Calif., USA) coupled with a Proxeon EASY-nLC™ 1200 LC pump (Thermo Fisher Scientific). Peptides were separated on a 100 μm inner diameter microcapillary column packed with 35 cm of Accucore™ C18 resin (1.8 μm, 100 Å, Thermo Fisher Scientific). […]

[2] = target: T2, MLO-Y4 cell surface proteins (Mus musculus, UniProt P63038); conditions: co-precipitated protein Hspd1 (CH60_MOUSE)
T2 construct: endogenous in cells; host or cells: MLO-Y4
T2 sequence (P63038 27-573): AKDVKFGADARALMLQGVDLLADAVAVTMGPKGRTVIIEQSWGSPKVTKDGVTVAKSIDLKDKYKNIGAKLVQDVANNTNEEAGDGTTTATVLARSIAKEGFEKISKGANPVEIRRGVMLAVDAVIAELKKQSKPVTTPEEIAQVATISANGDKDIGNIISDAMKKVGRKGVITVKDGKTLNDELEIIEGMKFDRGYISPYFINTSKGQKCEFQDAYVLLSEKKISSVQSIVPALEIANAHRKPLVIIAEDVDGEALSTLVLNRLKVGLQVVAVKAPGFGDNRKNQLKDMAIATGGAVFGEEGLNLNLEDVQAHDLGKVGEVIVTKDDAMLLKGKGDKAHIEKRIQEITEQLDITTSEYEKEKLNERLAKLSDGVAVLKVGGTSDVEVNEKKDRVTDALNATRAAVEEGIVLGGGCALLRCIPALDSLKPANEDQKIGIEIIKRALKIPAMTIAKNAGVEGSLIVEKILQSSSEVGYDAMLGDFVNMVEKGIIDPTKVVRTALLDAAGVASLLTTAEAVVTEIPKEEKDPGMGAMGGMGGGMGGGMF
Experimental: as §1, §2, §3

[3] = target: T3, MLO-Y4 cell surface proteins (Mus musculus, UniProt Q921G7); conditions: co-precipitated protein Etfdh (ETFD_MOUSE)
T3 construct: endogenous in cells; host or cells: MLO-Y4
T3 sequence (Q921G7 33-616): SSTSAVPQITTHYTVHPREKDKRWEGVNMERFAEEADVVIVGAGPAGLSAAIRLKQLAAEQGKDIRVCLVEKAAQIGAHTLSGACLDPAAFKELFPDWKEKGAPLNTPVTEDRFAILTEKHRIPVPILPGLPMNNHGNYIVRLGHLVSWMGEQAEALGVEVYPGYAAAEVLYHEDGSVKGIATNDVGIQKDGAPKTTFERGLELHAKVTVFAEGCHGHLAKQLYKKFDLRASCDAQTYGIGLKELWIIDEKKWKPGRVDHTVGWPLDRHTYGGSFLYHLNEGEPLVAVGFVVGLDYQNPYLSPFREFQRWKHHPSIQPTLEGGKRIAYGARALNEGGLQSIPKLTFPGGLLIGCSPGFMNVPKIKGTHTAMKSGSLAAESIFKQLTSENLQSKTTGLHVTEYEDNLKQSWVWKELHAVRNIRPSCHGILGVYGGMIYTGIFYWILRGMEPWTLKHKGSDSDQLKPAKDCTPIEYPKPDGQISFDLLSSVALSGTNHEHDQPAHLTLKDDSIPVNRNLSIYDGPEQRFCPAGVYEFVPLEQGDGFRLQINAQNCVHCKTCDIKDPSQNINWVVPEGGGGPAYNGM
Experimental: as §1, §2, §3

[4] = target: T4, MLO-Y4 cell surface proteins (Mus musculus, UniProt Q99LC5); conditions: co-precipitated protein Etfa (ETFA_MOUSE)
T4 construct: endogenous in cells; host or cells: MLO-Y4
T4 sequence (Q99LC5 20-333): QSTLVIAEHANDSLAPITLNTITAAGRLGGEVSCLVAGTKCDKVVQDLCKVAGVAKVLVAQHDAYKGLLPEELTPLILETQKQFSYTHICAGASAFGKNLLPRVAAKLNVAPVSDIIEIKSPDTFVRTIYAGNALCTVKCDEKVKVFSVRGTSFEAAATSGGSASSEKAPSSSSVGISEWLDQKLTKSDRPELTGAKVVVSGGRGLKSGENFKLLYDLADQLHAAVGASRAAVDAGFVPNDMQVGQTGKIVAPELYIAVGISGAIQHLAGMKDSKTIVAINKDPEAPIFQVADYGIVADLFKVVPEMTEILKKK
Experimental: as §1, §2, §3

[5] = target: T5, MLO-Y4 cell surface proteins (Mus musculus, UniProt Q9JHS4); conditions: co-precipitated protein Clpx (CLPX_MOUSE)
T5 construct: endogenous in cells; host or cells: MLO-Y4
T5 sequence (Q9JHS4 57-634): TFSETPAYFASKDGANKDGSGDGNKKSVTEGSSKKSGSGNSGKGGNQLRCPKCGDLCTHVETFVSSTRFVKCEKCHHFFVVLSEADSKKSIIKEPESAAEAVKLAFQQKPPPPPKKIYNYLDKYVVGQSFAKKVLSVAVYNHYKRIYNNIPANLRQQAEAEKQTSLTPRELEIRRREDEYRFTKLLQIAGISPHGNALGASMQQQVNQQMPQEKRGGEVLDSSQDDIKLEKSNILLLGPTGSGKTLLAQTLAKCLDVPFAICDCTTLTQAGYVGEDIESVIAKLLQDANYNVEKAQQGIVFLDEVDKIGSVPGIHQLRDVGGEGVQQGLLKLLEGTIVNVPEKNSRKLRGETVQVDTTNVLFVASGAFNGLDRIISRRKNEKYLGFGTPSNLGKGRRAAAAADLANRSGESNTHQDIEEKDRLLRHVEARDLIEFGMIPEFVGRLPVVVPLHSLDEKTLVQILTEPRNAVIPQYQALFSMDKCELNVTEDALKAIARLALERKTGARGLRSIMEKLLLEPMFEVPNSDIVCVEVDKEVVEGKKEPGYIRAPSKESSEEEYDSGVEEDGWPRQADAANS
Experimental: as §1, §2, §3

TMT signal-to-noise ratio [1]: 138.296
TMT signal-to-noise ratio [2]: 4263.9
TMT signal-to-noise ratio [3]: 57.6477
TMT signal-to-noise ratio [4]: 80.1458
TMT signal-to-noise ratio [5]: 1517.78
Substance: adipsin
